Data published in patent publication US20090098123A1 (ROCKEFELLER UNIVERSITY, published 2009).

Key:
[1] = target: CLDN1 F10x3 (GFP-CLDN1 with a triple FLAG epitope inserted in EL1 at position F10) (human) (UniProt O95832); assay: cell-based or functional assay
[2] = target: GFP-CLDN1 with a single FLAG epitope inserted in EL1 at position F6 (human) (UniProt O95832); assay: cell-based or functional assay
[3] = target: GFP-CLDN1 with a single FLAG epitope inserted in EL1 at position F8 (human) (UniProt O95832); assay: cell-based or functional assay
[4] = target: GFP-CLDN1 with a single FLAG epitope inserted in EL1 at position F9 (human) (UniProt O95832); assay: cell-based or functional assay
human CD81 (human) = human CD81 (human) (UniProt P60033); assay: cell-based or functional assay
[5] = target: T1, J6/JFH HCVcc (cell culture infectious HCV particles of the chimeric genotype 2a J6/JFH genome) (Hepatitis C virus genotype 2a, isolate …, UniProt P26660 192-383; P26660 384-750); assay: HCVcc bound to transduced CHO cells 2 h at 37 C; cell-associated HCV RNA by real-time RT-PCR
T1 construct: A whole enveloped virion, not a single protein

For “anti-FLAG M2 monoclonal antibody (Sigma)”, the time after the temperature shift at which antibody addition still gives half-maximal inhibition of HCVpp infection (synchronized infection) [1] was 73 min, the reduction of HCVpp permissiveness (luciferase) of 293T cells expressing the clone, in the presence of antibody [2] was less than 90% and the reduction of HCVpp permissiveness (luciferase) of 293T cells expressing the clone, in the presence of antibody [3] was less than 45%. For the same molecule, the reduction of HCVpp permissiveness (luciferase) of 293T cells expressing the clone, in the presence of antibody [4] was less than 62%.

In the case of JS81 anti-CD81 antibody (BD Pharmingen), the time after the temperature shift at which antibody addition still gives half-maximal inhibition of HCVpp infection (synchronized infection) (human CD81 (human)) is reported as 18 min.

B1: human CLDN1 (Claudin-1), wild type (receptor)
chain: MANAGLQLLGFILAFLGWIGAIVSTALPQWRIYSYAGDNIVTAQAMYEGLWMSCVSQSTGQIQCKVFDSLLNLSSTLQATRALMVVGILLGVIAIFVATVGMKCMKCLEDDEVQKMRMAVIGGAIFLLAGLAILVATAWYGNRIVQEFYDPMTPVNARYEFGQALFTGWAAASLCLLGGALLCCSCPRKTTSYPTPRPYPKPAPSSGKDYV
notes: also called wild-type CLDN1
B1: no binding (tested: MOI ~0.5) [5].

B2: human CD81 (receptor)
chain: MGVEGCTKCIKYLLFVFNFVFWLAGGVILGVALWLRHDPQTTNLLYLELGDKPAPNTFYVGIYILIAVGAVMMFVGFLGCYGAIQESQCLLGTFFTCLVILFACEVAAGIWGFVNKDQIAKDVKQFYDQALQQAVVDDDANNAKAVVKTFHETLDCCGSSTLTALTTSVLKNNLCPSGSNIISNLFKEDCHQKIDDLFSGKLYLIGIAAIVVAVIMIFEMILSMVLCCGIRNSSVY
notes: whole, on cells
B2: no binding (tested: MOI ~0.5) [5].
